PMC3944691, “Crystallization and preliminary X-ray diffraction analysis of the amidase domain of allophanate hydrolase from Pseudomonas sp. strain ADP” (Acta Crystallographica. Section F, Structural Biology …, 2014)

B1: C-terminally truncated AtzF (AtzF467), first 467 amino acids of AtzF, N-terminally histidine-tagged (domain or fragment, Pseudomonas sp. strain ADP)
chain: MNDRAPHPERSGRVTPDHLTDLASYQAAYAAGTDAADVISDLYARIKEDGENPIWISLLPLESALAMLADAQQRKDKGEALPLFGIPFGVKDNIDVAGLPTTAGCTGFARTPRQHAFVVQRLVDAGAIPIGKTNLDQFATGLNGTRTPFGIPRCVFNENYVSGGSSSGSAVAVANGTVPFSLGTDTAGSGRIPAAFNNLVGLKPTKGLFSGSGLVPAARSLDCISVLAHTVDDALAVARVAAGYDADDAFSRKAGAAALTEKSWPRRFNFGVPAAEHRQFFGDAEAEALFNKAVRKLEEMGGTCISFDYTPFRQAAELLYAGPWVAERLAAIESLADEHPEVLHPVVRDIILSAKRMSAVDTFNGIYRLADLVRAAESTWEKIDVMLLPTAPTIYTVEDMLADPVRLNSNLGFYTNFVNLMDLSAIAVPAGFRTNGLPFGVTFIGRAFEDGAIASLGKAFVEHDLAK
notes: Allophanate hydrolase AtzF, Pseudomonas sp. strain ADP, first 467 amino acids (ends at Lys467), amidase domain; also called amidase domain of allophanate hydrolase; source: E. coli BL21 (λDE3), purified (Ni-NTA, Superdex 200 size exclusion); not shown: His6, N-terminal, kept

What was measured:
[1] = target: Allophanate hydrolase (AtzF) from Pseudomonas sp. strain ADP, His-tagged full-length (Pseudomonas sp. strain ADP); test: SEC; purified full-length AtzF on Superdex 200 prep-grade, 50 mM HEPES, 100 mM NaCl pH 7.5; oligomeric state from apparent size (~360 kDa)
[2] = target: the molecule itself; test: SEC; purified AtzF467 on Superdex 200 prep-grade, 50 mM Tris, 100 mM NaCl pH 7.5; oligomeric state from apparent size (~110 kDa); data not shown

| Molecule | stoichiometry N [1] | stoichiometry N [2] |
| --- | --- | --- |
| Allophanate hydrolase (AtzF) from Pseudomonas sp. strain ADP, His-tagged full-length (enzyme) | 6 | – |
| B1 | – | 2 |
